Assay results from paper PMC12887176, “IRF1 is a context-dependent homeostatic gatekeeper of basal immunity and antiviral readiness”.

Target: T1, IRF1 DBD-mNeonGreen (UniProt P10914 1-136)
T1 sequence: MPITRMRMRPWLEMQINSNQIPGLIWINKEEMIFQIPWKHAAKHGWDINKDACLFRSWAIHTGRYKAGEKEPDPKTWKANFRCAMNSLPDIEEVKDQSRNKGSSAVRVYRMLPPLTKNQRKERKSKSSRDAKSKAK
Assay: mass photometry; 1:1 protein:DNA; ~45 to ~65 kDa; 1:1 molar protein:DNA, 4 h at room temperature; protein lysed in PBS with 360 mM NaCl, 10% glycerol, DTT (assay buffers and pH not given); PBM: PBS, 360 mM NaCl, 1 mM DTT, 2% milk, 0.2% Triton X-100, room temperature
Conditions: protein: recombinant; tags: mNeonGreen fusion (42 kDa total); blunt

B1: specific DNA (IRF1 consensus) (dsDNA)
DNA 1: GAGAAGTGAAAGTACTTTCACTTCTC
DNA 2: GAGAAGTGAAAGTACTTTCACTTCTC
B1: binds.
